This note sets out measurements from US20230051847A1 (Johns Hopkins, published 2023).

The target in assay [1] is T1, RAS Q61WT[55-64] pHLA-A1 (human).
T1 construct: also called Q61WT pHLA-A1; H/K/N RAS WT(55-64) peptide on HLA-A1
Description: flow cytometry: scFv phage supernatant on peptide-pulsed SigM5 cells (HLA-A1+), median fluorescence intensity. A general note: Flow cytometry measures light scatter and fluorescence of single cells or particles in a stream.

Assay [2] concerns the target T1, RAS Q61WT[55-64] pHLA-A1. The assay is described as above. This is another data set of the same source.
In assay [3] the target is T1, RAS Q61WT[55-64] pHLA-A1. The description is as above. The source holds these as a separate data set.
Description: Cells were stained with 50 μL of phage supernatant per 50 μL of cells, washed and stained with rabbit anti-M13 antibody, then washed and stained with anti-Rabbit-PE antibody. Cells were stained with a live/dead Near-IR dye, washed, and analyzed by an iQue Screener (IntelliCyt, Albuquerque, N. Mex.).
Monoclonal phage were grown and sequenced as described above. Phage supernatant from representative wells of each unique clone was selected for flow cytometry analysis. In each well of a deep 96-well 2 mL plate, 50 μL of monoclonal phage was incubated with 2.5×10⁵ peptide-pulsed SigM5 cells in 50 μL of stain buffer. Plates were incubated on ice for 1 hour, followed by washing with 1 mL of stain buffer. Cells were then stained with 1 μg of rabbit anti-M13 antibody (Novus Biologicals), washed, stained with anti-rabbit-PE (BioLegend), incubated with an additional 100 μL of LIVE/DEAD Fixable Near-IR dye diluted 1:1000 in PBS for 10 minutes at RT in the dark, followed by washing in stain buffer before analysis. Stained cells were analyzed using an Intellicyt iQue3 flow cytometer (Sartorius, Gottingen, Germany).
Assay [4] has as its target p53^WT/HLA-A*02:01 pHLA (human). Description: flow cytometry: scFv phage supernatant on peptide-pulsed T2 cells (HLA-A2+), median fluorescence intensity.
Description: Cells were stained with 50 μL of phage supernatant per 50 μL of cells, washed and stained with rabbit anti-M13 antibody, then washed and stained with anti-Rabbit-PE antibody. Cells were stained with a live/dead Near-infrared (IR) dye, washed, and analyzed by an iQue Screener (IntelliCyt, Albuquerque, N. Mex.).
The pulsed cells were pelleted, washed once in cold staining buffer (PBS containing 0.5% BSA, 2 mM EDTA, and 0.1% sodium azide), and resuspended in 50 μL of stain buffer. Phage staining was performed on ice with 50 μL monoclonal phage supernatant for 1 hour, followed by one 800 μL wash in cold staining buffer. Cells were then stained with 1 μg of rabbit anti-M13 antibody (Novus Biologics, Centennial, Colo.) in 100 μL total volume on ice for 1 hour and washed once with 800 μL of cold staining buffer. Cells were then stained with 5 μL anti-rabbit-PE (Biolegend) on ice for 1 hour in 100 μL total volume, followed by incubation with 200 μL LIVE/DEAD Fixable Near-IR Dead Cell Stain (Thermo Fisher) for 10 minutes at room temperature per manufacturer's instructions. Cells were washed once in 800 μL of staining buffer. Stained cells were analyzed using an iQue Screener (IntelliCyt, Albuquerque, N. Mex.).

Like-named read-outs stand apart in the source and are kept apart here.

B1: H/K/N RAS Q61L_A1_cl11 (scFv)
scFv: DIQMTQSPSSLSASVGDRVTITCRASQDVNTAVAWYQQKPGKAPKLLIYSASFLYSGVPSRFSGSRSGTDFTLTISSLQPEDFATYYCQQYDRPITFGQGTKVEIKRTGGGSGGGGSGGGASEVQLVESGGGLVQPGGSLRLSCAASGFNIYYEAMHWVRQAPGKGLEWVAQIYPWNDYTYYADSVKGRFTISADTSKNTAYLQMNSLRAEDTAVYYCSRNYYAATMDYWGQGTLVTVSS
For the molecule B1, the binding result in assay [1] was “no binding”.

B2: H/K/N RAS Q61H_A1_cl9 (scFv)
scFv: DIQMTQSPSSLSASVGDRVTITCRASQDVNTAVAWYQQKPGKAPKLLIYSASFLYSGVPSRFSGSRSGTDFTLTISSLQPEDFATYYCQQGEYSPLTFGQGTKVEIKRTGGGSGGGGSGGGASEVQLVESGGGLVQPGGSLRLSCAASGFNVFESAMHWVRQAPGKGLEWVAWVYGSYDYTYYADSVKGRFTISADTSKNTAYLQMNSLRAEDTAVYYCSRSFAYFQAMDYWGQGTLVTVSS
B2: the binding result in assay [2] is “no binding”.

B3: H/R/N RAS Q61R_A1_cl13 (scFv)
scFv: DIQMTQSPSSLSASVGDRVTITCRASQDVNTAVAWYQQKPGKAPKLLIYSASFLYSGVPSRFSGSRSGTDFTLTISSLQPEDFATYYCQQYSYDPITFGQGTKVEIKRTGGGSGGGGSGGGASEVQLVESGGGLVQPGGSLRLSCAASGFNFSYSAMHWVRQAPGKGLEWVADVVPDGDWTYYADSVKGRFTISADTSKNTAYLQMNSLRAEDTAVYYCSRGWYALDYWGQGTLVTVSS
Consider B3, for which, in assay [3], the binding result was “no binding”.

B4: H/K/N RAS Q61H_A1_cl2 (scFv)
scFv: DIQMTQSPSSLSASVGDRVTITCRASQDVNTAVAWYQQKPGKAPKLLIYSASFLYSGVPSRFSGSRSGTDFTLTISSLQPEDFATYYCQQYDYYPFTFGQGTKVEIKRTGGGSGGGGSGGGASEVQLVESGGGLVQPGGSLRLSCAASGFNISYEAMHWVRQAPGKGLEWVALIYPNHGITSYADSVKGRFTISADTSKNTAYLQMNSLRAEDTAVYYCSRYSSSAMDYWGQGTLVTVSS
Regarding B4, the binding result in assay [2] is “no binding”.

B5: H/R/N RAS Q61R_A1_cl19 (scFv)
scFv: DIQMTQSPSSLSASVGDRVTITCRASQDVNTAVAWYQQKPGKAPKLLIYSASFLYSGVPSRFSGSRSGTDFTLTISSLQPEDFATYYCQQLMYDPITFGQGTKVEIKRTGGGSGGGGSGGGASEVQLVESGGGLVQPGGSLRLSCAASGFNFGTYWMHWVRQAPGKGLEWVAWFLPDYDYTLYADSVKGRFTISADTSKNTAYLQMNSLRAEDTAVYYCSRHGEYAFDYWGQGTLVTVSS
Take B5: the binding result in assay [3] is on record as “no binding”.

B6: p53_R175H_A2_cl6 (scFv)
scFv: DIQMTQSPSSLSASVGDRVTITCRASQDVNTAVAWYQQKPGKAPKLLIYSASFLYSGVPSRFSGSRSGTDFTLTISSLQPEDFATYYCQQQSSTPVTFGQGTKVEIKRTGGGSGGGGSGGGASEVQLVESGGGLVQPGGSLRLSCAASGFNVYQSDMHWVRQAPGKGLEWVATIWPYSGYTYYADSVKGRFTISADTSKNTAYLQMNSLRAEDTAVYYCSRDGMYAFDYWGQGTLVTVSS
B6: in assay [4], the binding result is reported as “no binding”.

B7: H/K/N RAS Q61H_A1_cl5 (scFv)
scFv: DIQMTQSPSSLSASVGDRVTITCRASQDVNTAVAWYQQKPGKAPKLLIYSASFLYSGVPSRFSGSRSGTDFTLTISSLQPEDFATYYCQQSSYSPWTFGQGTKVEIKRTGGGSGGGGSGGGASEVQLVESGGGLVQPGGSLRLSCAASGFNISPWDMHWVRQAPGKGLEWVAQLYPSSGYTNYADSVKGRFTISADTSKNTAYLQMNSLRAEDTAVYYCSRSVYWSLDYWGQGTLVTVSS
In the case of B7, in assay [2], the binding result is “no binding”.

B8: H/K/N RAS Q61H_A1_cl4 (scFv)
scFv: DIQMTQSPSSLSASVGDRVTITCRASQDVNTAVAWYQQKPGKAPKLLIYSASFLYSGVPSRFSGSRSGTDFTLTISSLQPEDFATYYCQQYDYYPFTFGQGTKVEIKRTGGGSGGGGSGGGASEVQLVESGGGLVQPGGSLRLSCAASGFNVFGYAIHWVRQAPGKGLEWVAEVYPGYDVTSYADSVKGRFTISADTSKNTAYLQMNSLRAEDTAVYYCSRYSWAGAFDYWGQGTLVTVSS
In the case of B8, the binding result in assay [2] is reported as “no binding”.

B9: p53_R175H_A2_cl16 (scFv)
scFv: DIQMTQSPSSLSASVGDRVTITCRASQDVNTAVAWYQQKPGKAPKLLIYSASFLYSGVPSRFSGSRSGTDFTLTITSLQPEDFATYYCQQQWSSPDTFGQGTKVEIKRTGGGSGGGGSGGGASEVQLVESGGGLVQPGGSLRLSCAASGFNLSYYDMHWVRQAPGKGLEWVALIYYGSGYTYYADSVKGRFTISADTSKNTAYLQMNSLRAEDTAVYYCSRGSYVSGMDYWGQGTLVTVSS
As for B9, the binding result in assay [4] is listed as “no binding”.

B10: H/R/N RAS Q61R_A1_cl3 (scFv)
scFv: DIQMTQSPSSLSASVGDRVTITCRASQDVNTAVAWYQQKPGKAPKLLIYSASFLYSGVPSRFSGSRSGTDFTLTISSLQPEDFATYYCQQSYYAPITFGQGTKVEIKRTGGGSGGGGSGGGASEVQLVESGGGLVQPGGSLRLSCAASGFNVQWSHMHWVRQAPGKGLEWVARLSPPSGYTNYADSVKGRFTISADTSKNTAYLQMNSLRAEDTAVYYCSRLILSKGGYGWAMDYWGQGTLVTVSS
As to B10, in assay [3], the binding result is on record as “no binding”.

B11: H/R/N RAS Q61R_A1_cl2 (scFv)
scFv: DIQMTQSPSSLSASVGDRVTITCRASQDVNTAVAWYQQKPGKAPKLLIYSASFLYSGVPSRFSGSRSGTDFTLTISSLQPEDFATYYCQQYWYYYPITFGQGTKVEIKRTGGGSGGGGSGGGASEVQLVESGGGLVQPGGSLRLSCAASGFNIYSYDMHWVRQAPGKGLEWVAISPGGSYTYYADSVKGRFTISADTSKNTAYLQMNSLRAEDTAVYYCSRSAFTGYFDVWGQGTLVTVSS
B11: the binding result in assay [3] was “no binding”.

B12: H/R/N RAS Q61R_A1_cl7 (scFv)
scFv: DIQMTQSPSSLSASVGDRVTITCRASQDVNTAVAWYQQKPGKAPKLLIYSASFLYSGVPSRFSGSRSGTDFTLTISSLQPEDFATYYCQQYASDPITFGQGTKVEIKRTGGGSGGGGSGGGASEVQLVESGGGLVQPGGSLRLSCAASGFNLDYGWMHWVRQAPGKGLEWVAWVVPGSDYTDYADSVKGRFTISADTSKNTAYLQMNSLRAEDTAVYYCSRFHYTAFDVWGQGTLVTVSS
With B12, in assay [3], the binding result is on record as “no binding”.

B13: H/R/N RAS Q61R_A1_cl18 (scFv)
scFv: DIQMTQSPSSLSASVGDRVTITCRASQDVNTAVAWYQQKPGKAPKLLIYSASFLYSGVPSRFSGSRSGTDFTLTISSLQPEDFATYYCQQYIYDPVTFGQGTKVEIKRTGGGSGGGGSGGGASEVQLVESGGGLVQPGGSLRLSCAASGFNVDWAWMHWVRQAPGKGLEWVAWVVGGSDYTYYADSVKGRFTISADTSKNTAYLQMNSLRAEDTAVYYCSRSYYYAFDYWGQGTLVTVSS
Regarding B13, the binding result in assay [3] was “no binding”.

B14: H/K/N RAS Q61H_A1_cl3 (scFv)
scFv: DIQMTQSPSSLSASVGDRVTITCRASQDVNTAVAWYQQKPGKAPKLLIYSASFLYSGVPSRFSGSRSGTDFTLTISSLQPEDFATYYCQQSIYYPFTFGQGTKVEIKRTGGGSGGGGSGGGASEVQLVESGGGLVQPGGSLRLSCAASGFNLYTSQMHWVRQAPGKGLEWVALVYPGYYVTSYADSVKGRFTISADTSKNTAYLQMNSLRAEDTAVYYCSRGAYYYSSAMDYWGQGTLVTVSS
For B14, in assay [2], the binding result is “no binding”.

B15: H/R/N RAS Q61R_A1_cl5 (scFv)
scFv: DIQMTQSPSSLSASVGDRVTITCRASQDVNTAVAWYQQKPGKAPKLLIYSASFLYSGVPSRFSGSRSGTDFTLTISSLQPEDFATYYCQQYYLYQPITFGQGTKVEIKRTGGGSGGGGSGGGASEVQLVESGGGLVQPGGSLRLSCAASGFNIGMYTMHWVRQAPGKGLEWVALVYPDSGYTNYADSVKGRFTISADTSKNTAYLQMNSLRAEDTAVYYCSRYTWQSMDYWGQGTLVTVSS
On to B15, for which the binding result in assay [3] is given as “no binding”.

B16: H/R/N RAS Q61R_A1_cl1 (scFv)
scFv: DIQMTQSPSSLSASVGDRVTITCRASQDVNTAVAWYQQKPGKAPKLLIYSASFLYSGVPSRFSGSRSGTDFTLTISSLQPEDFATYYCQQSYTSPLTFGQGTKVEIKRTGGGSGGGGSGGGASEVQLVESGGGLVQPGGSLRLSCAASGFNIYYGVMHWVRQAPGKGLEWVAMIYPDSSWTYYADSVKGRFTISADTSKNTAYLQMNSLRAEDTAVYYCSRDQDFHYMNYYLSYALDYWGQGTLVTVSS
notes: also called H/K/N RAS Q61R(55-64)-A1 cl.1
As to B16, the binding result in assay [3] is listed as “no binding”.

B17: p53_R175H_A2_cl15 (scFv)
scFv: DIQMTQSPSSLSASVGDRVTITCRASQDVNTAVAWYQQKPGKAPKLLIYSASFLYSGVPSRFSGSRSGTDFTLTISSLQPEDFATYYCQQSSYYPNTFGQGTKVEIKRTGGGSGGGGSGGGASEVQLVESGGGLVQPGGSLRLSCAASGFNLYQRDMHWVRQAPGKGLEWVAGLLYGSDHTEYADSVKGRFTISADTSKNTAYLQMNSLRAEDTAVYYCSRATYEEAFDYWGQGTLVTVSS
With B17, the binding result in assay [4] is listed as “no binding”.

B18: H/K/N RAS Q61H_A1_cl8 (scFv)
scFv: DIQMTQSPSSLSASVGDRVTITCRASQDVNTAVAWYQQKPGKAPKLLIYSASFLYSGVPSRFSGSRSGTDFTLTISSLQPEDFATYYCQQSFSTPITFGQGTKVEIKRTGGGSGGGGSGGGASEVQLVESGGGLVQPGGSLRLSCAASGFNISEYLMHWVRQAPGKGLEWVALLPPGLSYTNYADSVKGRFTISADTSKNTAYLQMNSLRAEDTAVYYCSRYGYYAFDYWGQGTLVTVSS
For the molecule B18, in assay [2], the binding result is recorded as “no binding”.

B19: H/K/N RAS Q61H_A1_cl10 (scFv)
scFv: DIQMTQSPSSLSASVGDRVTITCRASQDVNTAVAWYQQKPGKAPKLLIYSASFLYSGVPSRFSGSRSGTDFTLTISSLQPEDFATYYCQQTYYTPVTFGQGTKVEIKRTGGGSGGGGSGGGASEVQLVESGGGLVQPGGSLRLSCAASGFNISHYVMHWVRQAPGKGLEWVADFYPHSDSTYYADSVKGRFTISADTSKNTAYLQMNSLRAEDTAVYYCSRYQSYSFDYWGQGTLVTVSS
In the case of B19, the binding result in assay [2] was “no binding”.
